Biological target: IL-13 receptor (IL-4Rα and IL-13Rα1) (UniProt P24394)
Sequence of UniProt P24394 (P24394 26-825, chain 1 of 2): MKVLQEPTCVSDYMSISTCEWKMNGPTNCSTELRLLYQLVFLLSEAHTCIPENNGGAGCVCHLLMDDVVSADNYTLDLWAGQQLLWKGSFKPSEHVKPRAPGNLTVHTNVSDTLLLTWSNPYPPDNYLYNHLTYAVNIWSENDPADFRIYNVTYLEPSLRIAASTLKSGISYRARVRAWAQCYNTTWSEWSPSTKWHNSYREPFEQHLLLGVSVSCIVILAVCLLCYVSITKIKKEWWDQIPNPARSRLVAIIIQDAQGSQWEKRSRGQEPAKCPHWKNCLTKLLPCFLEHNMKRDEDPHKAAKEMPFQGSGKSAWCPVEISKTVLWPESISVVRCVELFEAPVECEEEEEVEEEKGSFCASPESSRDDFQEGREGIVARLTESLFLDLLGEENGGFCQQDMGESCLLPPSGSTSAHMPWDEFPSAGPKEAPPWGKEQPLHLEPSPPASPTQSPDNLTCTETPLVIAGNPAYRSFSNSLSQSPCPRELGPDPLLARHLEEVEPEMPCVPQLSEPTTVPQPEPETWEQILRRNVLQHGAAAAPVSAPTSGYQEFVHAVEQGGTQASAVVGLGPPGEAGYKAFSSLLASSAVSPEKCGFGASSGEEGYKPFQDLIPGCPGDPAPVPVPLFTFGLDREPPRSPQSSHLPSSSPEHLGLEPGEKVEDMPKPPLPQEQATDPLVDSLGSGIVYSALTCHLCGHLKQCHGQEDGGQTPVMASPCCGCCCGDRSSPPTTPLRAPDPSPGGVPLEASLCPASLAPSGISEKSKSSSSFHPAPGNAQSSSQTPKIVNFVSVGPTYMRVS
Sequence of UniProt P24394 (P78552 22-427, chain 2 of 2, further chain): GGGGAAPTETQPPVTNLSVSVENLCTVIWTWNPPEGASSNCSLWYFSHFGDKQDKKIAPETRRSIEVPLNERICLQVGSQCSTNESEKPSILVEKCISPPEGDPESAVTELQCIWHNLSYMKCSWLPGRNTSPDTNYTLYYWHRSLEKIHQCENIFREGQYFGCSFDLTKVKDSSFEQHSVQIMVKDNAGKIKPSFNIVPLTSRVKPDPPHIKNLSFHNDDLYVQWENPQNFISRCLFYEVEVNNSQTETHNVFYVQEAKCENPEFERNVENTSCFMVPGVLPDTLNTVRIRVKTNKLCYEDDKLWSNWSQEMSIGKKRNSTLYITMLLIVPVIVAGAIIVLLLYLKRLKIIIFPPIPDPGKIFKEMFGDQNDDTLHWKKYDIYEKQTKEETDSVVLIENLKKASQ

SEAP reporter (P STAT6/cEBP-SEAP) in HEK-293 cells co-transfected with IL-13Rα1, IL-4Rα and STAT6, 48 h with different physiological IL-13 concentrations; fold induction: 33 fold
Substance: human recombinant interleukin 13 (from UniProt P35225 25-146) (ligand)
